According to patent US20250340857A1 (SEISMIC THERAPEUTIC, published 2025):
Residue numbers refer to the chain shown, from its start.

B1: FP178 (Fc fusion)
chain: TALGRRKAEDRIKETLWADGVKIDEKDFEHIKSSHEDYFAVEYGKGSGYYDVNKKMDSEDSALCVGAVVTNMFHWWVDQNRENIEKFKKQDPENNGVMKFEGVKEATVDELNEFYRDNRDNYADQSRFFDLIKKHFGNKALNPEELFELYFNGFYYGSSHRYIEDNEPAQNNLFSKVLENNKLLNPERSYGIDGFSNNVINALKSHKVLGLVYTTPLRYRHIISMWGADIDQDGKVKAIYVTDSDDREITFNDNSKRRIGMIRYDVLVDDNGNIRFTGKGATHKEEGAIYAGLYSLSRGDEVWEDYFKKYPEVQENLDKTHTCPPCPAPEAAGAPSVFLFPPKPKDTLMISRTPEVTCVVVDVSHEDPEVKFNWYVDGVEVHNAKTKPREEQQNSTYRVVSVLTVLHQDWLNGKEYKCKVSNKALKAPIEKTISKAKGQPREPQVYTLPPSRDELTKNQVSLTCLVKGFYPSDIAVEWESNGQPENNYKTTPPVLDSDGSFFLYSKLTVDKSRWQQGNVFSCSVMHEALHNHYTQKSLSLSPG
B2: FP167 (Fc fusion)
chain 1: DKTHTCPPCPAPEAAGAPSVFLFPPKPKDTLMISRTPEVTCVVVDVSHEDPEVKFNWYVDGVEVHNAKTKPREEQQNSTYRVVSVLTVLHQDWLNGKEYKCKVSNKALKAPIEKTISKAKGQPREPQVYTLPPSRDELTKNQVSLWCLVKGFYPSDIAVEWESNGQPENNYKTTPPVLDSDGSFFLYSKLTVDKSRWQQGNVFSCSVMHEALHNHYTQKSLSLSPGGSSAPGSSAPGSSAPTALGRRKAEDRIKETLWADGVKIDEKDFEHIKSSHEDYFAVEYGKGSGYYDVNKKMDSEDTALCVGAVVTNMFHWWVDQNRENIEKFKKQDPENNGVMKFEGVKEATVDELNEFYRDNRDNYADQSRFFDLIKKHFGNKALNPEELFELYFNGFYYGSSHRYIEDNEPAQNNLFSKVLENNKLLNPERSYGIDGFSNNVINALKSHKVLGLVYTTPLRYRHIISMWGADIDQDGKVKAIYVTDSDDREITFNDNSKRRIGMIRYDVLVDDNGNIRFTGKGATHKEEGAIYAGLYSLSRGDEVWEDYFKKYPEVQENL
chain 2: DKTHTCPPCPAPEAAGAPSVFLFPPKPKDTLMISRTPEVTCVVVDVSHEDPEVKFNWYVDGVEVHNAKTKPREEQQNSTYRVVSVLTVLHQDWLNGKEYKCKVSNKALKAPIEKTISKAKGQPREPQVYTLPPSRDELTKNQVSLSCAVKGFYPSDIAVEWESNGQPENNYKTTPPVLDSDGSFFLVSKLTVDKSRWQQGNVFSCSVMHEALHNHYTQKSLSLSPG
B3: FP179 (Fc fusion)
chain 1: B1 chain with T463W
chain 2: B2 chain 2
B4: FP175 (Fc fusion)
chain 1: B2 chain 1 with M208L, N214S, T302S
chain 2: B2 chain 2 with M208L, N214S
B5: FP183 (Fc fusion)
chain 1: DKTHTCPPCPAPEAAGAPSVFLFPPKPKDTLMISRTPEVTCVVVDVSHEDPEVKFNWYVDGVEVHNAKTKPREEQQNSTYRVVSVLTVLHQDWLNGKEYKCKVSNKALKAPIEKTISKAKGQPREPQVYTLPPSRDELTKNQVSLWCLVKGFYPSDIAVEWESNGQPENNYKTTPPVLDSDGSFFLYSKLTVDKSRWQQGNVFSCSVMHEALHNHYTQKSLSLSPGAEEEKAEEEKAEEEKTALGRRKAEDRIKETLWADGVKIDEKDFEHIKSSHEDYFAVEYGKGSGYYDVNKKMDSEDSALCVGAVVTNMFHWWVDQNRENIEKFKKQDPENNGVMKFEGVKEATVDELNEFYRDNRDNYADQSRFFDLIKKHFGNKALNPEELFELYFNGFYYGSSHRYIEDNEPAQNNLFSKVLENNKLLNPERSYGIDGFSNNVINALKSHKVLGLVYTTPLRYRHIISMWGADIDQDGKVKAIYVTDSDDREITFNDNSKRRIGMIRYDVLVDDNGNIRFTGKGATHKEEGAIYAGLYSLSRGDEVWEDYFKKYPEVQENL
chain 2: B2 chain 2
B6: FP168 (Fc fusion)
chain 1: B2 chain 1 with M208L, N214S
chain 2: B2 chain 2 with M208L, N214S
B7: FP174 (Fc fusion)
chain 1: B2 chain 1 with T302S
chain 2: B2 chain 2
B8: FP143 (Fc fusion)
chain: DKTHTCPPCPAPEAAGAPSVFLFPPKPKDTLMISRTPEVTCVVVDVSHEDPEVKFNWYVDGVEVHNAKTKPREEQQNSTYRVVSVLTVLHQDWLNGKEYKCKVSNKALKAPIEKTISKAKGQPREPQVYTLPPSRDELTKNQVSLTCLVKGFYPSDIAVEWESNGQPENNYKTTPPVLDSDGSFFLYSKLTVDKSRWQQGNVFSCSVLHEALHSHYTQKSLSLSPGGGGSGGGGSGGGGSTALGRRKAEDRIKETLWADGVKIDEKDFEHIKSSHEDYFAVEYGKGSGYYDVNKKMDSEDTALCVGAVVTNMFHWWVDQNRENIEKFKKQDPENNGVMKFEGVKEATVDELNEFYRDNRDNYADQSRFFDLIKKHFGNKALNPEELFELYFNGFYYGSSHRYIEDNEPAQNNLFSKVLENNKLLNPERSYGIDGFSNNVINALKSHKVLGLVYTTPLRYRHIISMWGADIDQDGKVKAIYVTDSDDREITFNDNSKRRIGMIRYDVLVDDNGNIRFTGKGATHKEEGAIYAGLYSLSRGDEVWEDYFKKYPEVQENL
B9: FP160 (Fc fusion)
chain: B8 chain with L208M, S214N, I432R, D510K, E525N, E541K, E544K
B10: FP150 (Fc fusion)
chain: B8 chain with L208M, S214N, N411G
B11: FP146 (Fc fusion)
chain: B8 chain with L208M, S214N, K374S, K496A
B12: FP149 (Fc fusion)
chain: B8 chain with L208M, S214N, D510K
B13: FP163 (Fc fusion)
chain: B8 chain with L208M, S214N, N511E
B14: FP171 (Fc fusion)
chain 1: B8 chain with T146W, T301S
chain 2: B2 chain 2 with M208L, N214S
B15: FP158 (Fc fusion)
chain: B8 chain with L208M, S214N, E541K, E544K
B16: FP164 (Fc fusion)
chain: B8 chain with L208M, S214N, H375D
B17: FP147 (Fc fusion)
chain: B8 chain with L208M, S214N, H400Q, R458E
B18: FP144 (Fc fusion)
chain: B8 chain with L89D, Q91H, L208M
B19: FP165 (Fc fusion)
chain 1: B8 chain with T146W
chain 2: B2 chain 2 with M208L, N214S
B20: FP170 (Fc fusion)
chain 1: B8 chain with T146W, L208M, S214N, T301S
chain 2: B2 chain 2
B21: FP145 (Fc fusion)
chain: B8 chain with L208M, S214N, T301S
B22: FP159 (Fc fusion)
chain: B8 chain with L208M, S214N, D510K, E525N

Target: Human IgE antibody (human)
Assay: cell-based or functional assay

First: B1
Second: B3
The “EC50 CE-SDS IgE” value of the first is 2.5-fold lower: 2.61 nM for the first, 6.64 nM for the second.

First: B4
Second: B5
The “EC50 CE-SDS IgE” value of the first is 23-fold higher: 179 nM for the first, 7.63 nM for the second.

B6 and B7 are within 1.5-fold of each other in “EC50 CE-SDS IgE” value: 17.6 nM for the first, 12.2 nM for the second.

First: B8
Second: B9
The “EC50 CE-SDS IgE” value of the first is 120-fold lower: 0.035 nM for the first, 4.04 nM for the second.

B10 and B11 are within 1.5-fold of each other in “EC50 CE-SDS IgE” value: 1.15 nM for the first, 1.58 nM for the second.

First: B12
Second: B13
The “EC50 CE-SDS IgE” value of the first is 160-fold lower: 0.19 nM for the first, 30.5 nM for the second.

Going from B14 to B15, the “EC50 CE-SDS IgE” value falls from 17.8 nM to 0.2 nM (89-fold).

Going from B16 to B17, the “EC50 CE-SDS IgE” value falls from 17.4 nM to 3.1 nM (5.6-fold).

Compared with B18, B19 is 44-fold higher in “EC50 CE-SDS IgE” value: 0.66 nM for the first, 29.3 nM for the second.

Going from B20 to B21, the “EC50 CE-SDS IgE” value falls from 14.6 nM to 1.45 nM (10-fold).

With B22 the “EC50 CE-SDS IgE” value was 2.45 nM.

First: B1
Second: B2
The “EC50 MSD IgE” value of the first is 2.3-fold lower: 0.317 nM for the first, 0.721 nM for the second.

First: B3
Second: B4
The “EC50 MSD IgE” value of the first is 4.4-fold lower: 0.424 nM for the first, 1.88 nM for the second.

B5 and B6 are within 1.5-fold of each other in “EC50 MSD IgE” value: 0.548 nM for the first, 0.637 nM for the second.

Going from B7 to B8, the “EC50 MSD IgE” value rises from 0.511 nM to 1.63 nM (3.2-fold).

Compared with B10, B12 is 3.1-fold lower in “EC50 MSD IgE” value: 2.2 nM for the first, 0.708 nM for the second.

Compared with B14, B19 is 1.6-fold lower in “EC50 MSD IgE” value: 1.35 nM for the first, 0.822 nM for the second.

Compared with B20, B21 is 1.6-fold lower in “EC50 MSD IgE” value: 1.02 nM for the first, 0.654 nM for the second.
